Experiments:
[1] = target: T1, AnkG 38–855 (AnkG MBD-AI-c protein; MBD + partial AI-c) (rat, UniProt O70511-1 38-855); assay: ITC; reported in Wang et al 2014
T1 chain: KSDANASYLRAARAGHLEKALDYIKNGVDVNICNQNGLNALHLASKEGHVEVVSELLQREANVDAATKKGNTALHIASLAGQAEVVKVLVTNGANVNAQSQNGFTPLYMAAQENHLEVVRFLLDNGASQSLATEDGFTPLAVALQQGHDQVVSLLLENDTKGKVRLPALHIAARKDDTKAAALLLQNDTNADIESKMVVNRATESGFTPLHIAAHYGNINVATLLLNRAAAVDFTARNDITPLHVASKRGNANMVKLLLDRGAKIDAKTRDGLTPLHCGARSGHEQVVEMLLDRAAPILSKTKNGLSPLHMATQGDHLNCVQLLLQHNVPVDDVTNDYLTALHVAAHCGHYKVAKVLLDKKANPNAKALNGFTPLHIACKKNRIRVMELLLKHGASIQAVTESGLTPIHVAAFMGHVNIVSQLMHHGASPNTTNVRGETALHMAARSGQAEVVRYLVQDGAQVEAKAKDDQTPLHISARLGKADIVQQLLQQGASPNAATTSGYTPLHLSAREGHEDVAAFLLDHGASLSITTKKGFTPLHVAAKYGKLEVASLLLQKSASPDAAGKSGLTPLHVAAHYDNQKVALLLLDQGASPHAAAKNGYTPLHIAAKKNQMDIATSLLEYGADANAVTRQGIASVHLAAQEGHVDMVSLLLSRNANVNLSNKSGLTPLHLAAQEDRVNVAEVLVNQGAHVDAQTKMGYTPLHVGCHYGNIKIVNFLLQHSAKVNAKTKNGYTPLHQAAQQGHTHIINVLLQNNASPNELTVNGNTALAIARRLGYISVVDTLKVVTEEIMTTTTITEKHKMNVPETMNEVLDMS

[2] = target: T2, AnkB 28–847 (MBD + partial AI-c) (human, UniProt Q01484-2 28-847); assay: ITC
T2 chain: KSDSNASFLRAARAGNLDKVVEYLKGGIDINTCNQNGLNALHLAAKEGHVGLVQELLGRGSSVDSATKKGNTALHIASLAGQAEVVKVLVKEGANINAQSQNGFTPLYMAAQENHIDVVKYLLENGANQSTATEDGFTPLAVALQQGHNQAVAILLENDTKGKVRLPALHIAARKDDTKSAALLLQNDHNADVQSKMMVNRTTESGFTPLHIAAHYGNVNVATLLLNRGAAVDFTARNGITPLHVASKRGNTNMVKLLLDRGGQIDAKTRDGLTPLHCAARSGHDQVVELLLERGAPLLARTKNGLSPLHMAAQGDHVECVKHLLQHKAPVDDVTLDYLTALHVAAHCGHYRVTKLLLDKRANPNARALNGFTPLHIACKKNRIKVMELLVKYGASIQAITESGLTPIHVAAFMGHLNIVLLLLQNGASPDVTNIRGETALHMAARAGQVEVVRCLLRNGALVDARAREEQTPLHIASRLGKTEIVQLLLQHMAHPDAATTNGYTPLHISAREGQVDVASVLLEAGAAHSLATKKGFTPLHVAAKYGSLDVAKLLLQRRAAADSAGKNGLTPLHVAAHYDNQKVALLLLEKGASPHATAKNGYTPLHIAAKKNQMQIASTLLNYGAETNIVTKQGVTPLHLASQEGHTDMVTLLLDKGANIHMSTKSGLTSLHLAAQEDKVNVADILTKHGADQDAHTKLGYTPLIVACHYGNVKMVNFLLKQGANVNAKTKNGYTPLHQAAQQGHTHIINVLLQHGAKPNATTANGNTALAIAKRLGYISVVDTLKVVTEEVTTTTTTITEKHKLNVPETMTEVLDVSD

[3] = target: T3, AnkB 28–965 (MBD + AI-c + AI-b) (human, UniProt Q01484-2 28-965); assay: ITC
T3 chain: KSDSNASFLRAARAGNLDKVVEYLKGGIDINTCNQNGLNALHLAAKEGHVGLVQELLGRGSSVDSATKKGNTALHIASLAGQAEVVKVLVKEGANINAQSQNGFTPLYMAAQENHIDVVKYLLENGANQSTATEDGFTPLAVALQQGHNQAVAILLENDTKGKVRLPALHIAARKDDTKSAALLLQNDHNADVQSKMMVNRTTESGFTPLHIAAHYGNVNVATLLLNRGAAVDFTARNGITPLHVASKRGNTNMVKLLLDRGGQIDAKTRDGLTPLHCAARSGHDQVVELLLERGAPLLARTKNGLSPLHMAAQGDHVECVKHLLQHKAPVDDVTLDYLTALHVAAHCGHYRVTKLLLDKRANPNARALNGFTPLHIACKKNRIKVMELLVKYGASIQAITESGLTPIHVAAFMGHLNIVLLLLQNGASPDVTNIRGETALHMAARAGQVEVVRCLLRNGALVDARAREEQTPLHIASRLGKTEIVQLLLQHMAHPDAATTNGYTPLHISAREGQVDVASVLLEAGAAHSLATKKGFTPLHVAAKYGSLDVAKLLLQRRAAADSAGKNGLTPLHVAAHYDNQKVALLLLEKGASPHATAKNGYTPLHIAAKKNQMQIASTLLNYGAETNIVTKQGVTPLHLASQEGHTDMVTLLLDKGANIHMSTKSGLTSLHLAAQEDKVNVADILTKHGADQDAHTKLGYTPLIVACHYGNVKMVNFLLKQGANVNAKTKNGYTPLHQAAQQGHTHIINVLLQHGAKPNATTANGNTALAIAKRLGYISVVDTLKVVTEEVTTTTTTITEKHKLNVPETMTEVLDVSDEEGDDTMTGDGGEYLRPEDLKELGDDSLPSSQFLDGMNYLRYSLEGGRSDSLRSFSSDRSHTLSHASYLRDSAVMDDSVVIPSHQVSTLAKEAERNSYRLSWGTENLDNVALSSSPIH

- Kd [1]: 210 nM
- Kd [2]: 490 nM
- Kd [3]: 23000 nM
Binder: SDDSLVDYGEGGEGQFNEDGSFIGQYTV (domain or fragment) [NF186 (aa 1187–1214)]

Source: paper PMC5779224 (2017)
